# Laboratory results reported in the nanobody polyreactivity screen of Harvey et al. (2022).
# Assay: yeast display, Sf9 membrane polyspecificity reagent, FACS + sequencing; frameworks hold sequencing errors
# In short: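 Synthetic nanobody libraries on Saccharomyces cerevisiae BJ5465 were galactose-induced for 36–48 hours, stained 1 hour at 4 °C with 10% biotinylated, detergent-solubilized Sf9 membrane reagent and enriched on streptavidin microbeads. FACS then separated cells into low and high (top ~1%) gates by anti-HA (expression) and streptavidin (reagent binding) fluorescence. Genes were colony-PCR amplified, MiSeq 2 × 250 sequenced and CDR-length filtered. A clone's polyreactivity label is that of its gate of origin.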
row,Sequence,polyreactivity (PSR sort gate)
1,QVQLVESGGGLVQAGGSLRLSFSASGRTFPFYAMGWYRQEPGKERDLVAAITVSGGSTYYADSVKGRFTISRDNAKNTVYLQMNSLKPVDTAVYYCNAKRSDQSSKTFNYWGQGTQVTVSS,low polyreactivity
2,QVQLVESGGGLVQAGGSLRLSGAASGFIFVRYAMGWYRQAPGKERELVAAITRRGGSTHYADSVKGRFTISRDNAKNTVYLQMNSLTPEDTAVYYCAAGRQYYYLDRFPRVQGDYWGQGTQVTVSS,high polyreactivity
3,QVQLVESGGGLVQAGGSLRLSGAASGFISFPYAMGWDTQATGKERELVASITRSGGNTYYADSVKGRFTISRDNEKNTVYLQMNSLKPEDTAVYYCNAQIYTYRSGRGYSRMDYWGEGTQVTVSS,high polyreactivity
4,QVQLVESGGGLVQAGGSLRLSGAASGIIVPDYAMGWNKQAPGKERELVPDISFSAGSTYYADSVKGRFTISRDNAKNTVYLQMNSLKPDDTAVYVCAADQTSSYYDPWGDYWGQGTQVTVSS,low polyreactivity
5,QVQLVESGGGLVQAGGSLRLSGAASGRTFPYNTMGWYRQAPGKEWELVASITYTDGSTSYAYSVKGRFTISRDNAKNTVYLQMNCLKPEDTAVYYCAADYYAHQDYRFDYCGQGTQVTVSS,low polyreactivity
6,QVQLVESGGGLVQAGGSLRLSGAASGRTFYDYAMGWYRQAPGKERELVAAISWIDGSTYYADSVKGRFTISRDNAKNTVYLLMNSLKPEDTAVYYCAARRLVYYRKVKELDYWGQGTQVTVSS,high polyreactivity
7,QVQLVESGGGLVQAGGSLRLSGAASGSILWSYALGCYIQAPGKERELVAAIRSGGSTYYADSVKGRFTISRDNAKNTVYFQMNSLKPEDTAVLYCNATYAPLFEYDYWGQGTQVTVSS,low polyreactivity
8,QVQLVESGGGLVQAGGSLRLSIDASGRIFYPYVMGWYRQAPGQERELVAAISDSTGSTYYADSVKGRFTISRDNAKITVYLEMNSQKPEDTAVFYCAAGWFYATYWRFYYCGQGTQVTVSS,low polyreactivity
9,QVQLVESGGGLVQAGGSLRLSLLPPDSPSTTMLWDGIDRRLGKKGSWLPVFLPSGGTTYADSVKGRFTISRDNAKNTVYLQMNSLKPEDTAVYYCAASYYRTRWSWMYYWGQGTQVTLSS,low polyreactivity
10,QVQLVESGGGLVQAGGSLRLSRAASGATFYFNAMGWYSQAHGKERELVAGITYSGDSTYYADSVKGRFTLSRDNAKNPVYLQMNSLKPEDTAVYYCAADVDYDLDGDYWGQGTQVTVSS,low polyreactivity
11,QVQLVESGGGLVQAGGSLRLSSAASGFIFATYAMGWYRQAPGTERELVAAISQSGGGTYYADSVKGRFTISRDNAKNTVYLQMNSLKPEDTAVYYCAVDVSEWYHYDLYYWYYYWGQGTQVTVSS,high polyreactivity
12,QVQLVESGGGLVQAGGSLRLSSAASGFIFSTYAMGWYRQAPGKEREFVAAITRTGTRTYYADSVKGRFTISRDNAKNTVYLQMTSLKPEDTAVYYCAARAGVEAYGSRYGYWGQGTQGTVSS,high polyreactivity
13,QVQLVESGGGLVQAGGSLRLSSAASGFIFTYYAMGWYRQAPGKERELVAVITRGDSTYYADSVKGRFTISRDNAKNTVYLQMNSLKPEDTAVYYCAARGYFGWSGYSVPSTAYGYWGQGTQVTVSS,high polyreactivity
14,QVQLVESGGGLVQAGGSLRLSSAASGFTFRGYGMGWYRQAPAKERELVAAITSSGGSTYYADSVKGRFTISRDNAKNTVYLQMNSLKPEDTAVYYCAADRYTRYRYNYWGQGTQVTVSS,high polyreactivity
15,QVQLVESGGGLVQAGGSLRLSSAASGFTFVSYAMGWYRQAPGKERELVASISKRGGTTYYADSVKGRFTISRDNAKKTVFLQMNSLKPDDTAVYYCNARDTRRYVTYDSGYDYWGQGTQVTVSS,high polyreactivity
16,QVQLVESGGGLVQAGGSLRLSSAASGFTFYWYAMGWYRQAPGKEREFVAAIDQSGGSTYYADSVKGRFTISRDNAKNTVYLQMNSLKPEDTAVYYCAARYILWDGYSWTEFDYWGQGTQVTVSS,low polyreactivity

row,Sequence,polyreactivity (PSR sort gate)
1,QVQLVESGGGLVQAGGSLRLSSAASGGIFSSYAMGWYRQAPGKERELVAAISGSGGRTYYADSVKGRFTISRDNAKNTVYLQMNSLKPEDTSVYYCAAYPVNRVDYRYDYWGQGTQVTVSS,high polyreactivity
2,QVQLVESGGGLVQAGGSLRLSSAASGGIFWYYTMGWYRQAPGKERELVAAISWSGGRTYYADSVKGRFTISRDNAKNTVYLQMNSLKPEDTAVYYCAANFRGVLGWYHYEYWGQGTQVTVSS,high polyreactivity
3,QVQLVESGGGLVQAGGSLRLSSAASGGSFKRYVMVWYRQAPGKERELVAAITWSGGSTYYADSVKGRFTISRDNAKNTVYLQMNSLKPEDTAVYYCNVVTRWVTAAGYDYWGQGTQVTVSS,high polyreactivity
4,QVQLVESGGGLVQAGGSLRLSSAASGGTFGGYTRRWSRQAPGKERELVAAITRRGSSTFYADSVKGRFTISRDNAKKTVYLQMNSLKPEDTAVYYCAARYIVYLRTQSERYNSYDYWAQGTQVTVSS,high polyreactivity
5,QVQLVESGGGLVQAGGSLRLSSAASGIFRWNTKGWYRQAPRKERELVATISWGGGTTYYADSVKGRFTISRDNAKNTVYLQMNSLKPEDTAVYYCAKVYAVRIGMRYSYWGHGTQVTVSS,low polyreactivity
6,QVQLVESGGGLVQAGGSLRLSSAASGITFYFNAMRWYRQATGKVSEFVAAISFSGGGTYYADSVKGRFTISRDNAKITDYLDMNSLKPADTAVYYCNADYGRGTLRSIYDYWGQGTQVTVTS,low polyreactivity
7,QVQLVESGGGLVQAGGSLRLSSAASGITIRYNDMGWYRQAPGKERELVAAITFSGGSTYYPDSVKGRFTISRDNAMNTVYLQMNSLKPEDTAVYYCAKLGSTSSRGNYDYWGQGTQVTVSS,low polyreactivity
8,QVQLVESGGGLVQAGGSLRLSSAASGITSYGYAMGWNRQAPGKERELVASISWTGGNTYADSVKGRFTISRDNAKNTVYLQMNSLFPEDTAVYYCNAGRSWDYWYGYDYWGQGTHVTVSS,low polyreactivity
9,QVQLVESGGGLVQAGGSLRLSSAASGITYYGYAMGWYRQAPGKERELVAAISKSGGSTHYADSVKGRFTISRDNAINTVYLQMYRLKPEDTAVYYCAAAYWTRLRRMDYWGQGTQVTVSS,low polyreactivity
10,QVQLVESGGGLVQAGGSLRLSSAASGLILYSYAMGWYRQAPGKERELVADISSGGITNYADSVKGRFTISRDNAKNTVYLQMNSLKPEDTAVYYCAADTRPVNYILYDYWGQGTQVTVSS,low polyreactivity
11,QVQLVESGGGLVQAGGSLRLSSAASGLTFAYYTMGWYRQAPGKERELVAAISRSGSGTYYADSVKGRFTISRDNAKNTVYLQMNSLKPEDTAVYYCATRYYLKFLDGYNYWGQGTQVTVSS,high polyreactivity
12,QVQLVESGGGLVQAGGSLRLSSAASGLTFESYAIGWYRQAPWKERELVAAISFSCGSTNYADAVKGRFTISRDNAKNTVYLQLNSLKPEDTAVYYCAAEYGSPRGTGYDSWGQGTQVTVSS,high polyreactivity
13,QVQLVESGGGLVQAGGSLRLSSAASGNIFVYYAKGLYRHAPGKERELVAAISKRGGSTYYADSVKGRFTISRDNAKNTVYLQMNSLKPEDTAVYYCAALGHVDDSIYDYWGQGTQLTVSS,high polyreactivity
14,QVQLVESGGGLVQAGGSLRLSSAASGRIFEGYAMGWYRQAPGKERELVAAISSGGSTYYADSVKGRFTISRDNAKNTVYLQMNSLKPEDTAVYYCNAAHSVVSHGPGAGLEMDYWGQGTQVTVSS,low polyreactivity
15,QVQLVESGGGLVQAGGSLRLSSAASGRIFGVYAMGWYRQAPGKERELVAAITRSGGSTYYADSVKGRFTISRDNAKNTDYLQMKSLKPEDTAVYYCNRDFRGLAYSDRYDYWGQVTQVTVSS,low polyreactivity
